The experiment deals with T1, 6xHis-3xFLAG-Cdk8 wt (recombinant, full-length) (human, UniProt P49336 1-464).
T1 construct: Cdk8, human, full-length; Co-expressed with CycC, alone or together with MTBP(C) or Med12(N100); source: Sf9/Hi5 insect cells (baculovirus), purified (Ni-NTA, dialysis); not shown: 6xHis, N-terminal, kept
As to the kind of experiment: pull-down; co-expression in Sf9/Hi5 insect cells and co-purification on Ni-NTA agarose via the N-terminal 6His-tag on Cdk8; 20 mM HEPES pH 8.0, 150 mM NaCl, 2% glycerol, 0.1% Triton X-100, 0.5 mM TCEP, 20 mM imidazole; 4°C. The following applies: partners not purified.

T1 sequence (P49336 whole entry): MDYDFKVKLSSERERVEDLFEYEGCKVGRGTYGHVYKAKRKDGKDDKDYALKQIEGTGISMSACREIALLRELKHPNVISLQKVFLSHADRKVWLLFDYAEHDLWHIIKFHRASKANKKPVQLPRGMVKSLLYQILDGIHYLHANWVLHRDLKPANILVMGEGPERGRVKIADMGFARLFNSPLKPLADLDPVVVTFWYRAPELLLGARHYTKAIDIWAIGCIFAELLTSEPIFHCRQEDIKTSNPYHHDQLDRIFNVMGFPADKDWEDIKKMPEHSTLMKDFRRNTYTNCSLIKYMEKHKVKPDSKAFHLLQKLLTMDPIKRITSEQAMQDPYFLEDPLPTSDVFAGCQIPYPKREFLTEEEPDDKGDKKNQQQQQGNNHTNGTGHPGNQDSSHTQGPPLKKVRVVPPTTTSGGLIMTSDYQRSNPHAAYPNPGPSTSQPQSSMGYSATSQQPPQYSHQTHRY

B1: Med12(N100) (recombinant Med12 residues 1-100) (domain or fragment, human, UniProt Q93074 1-100, looked up)
chain: MAAFGILSYEHRPLKRPRLGPPDVYPQDPKQKEDELTALNVKQGFNNQPAVSGDEHGSAKNVSFNPAKISSNFSSIIAEKLRCNTLPDTGRRKPQVNQKD
notes: Med12, human, residues 1-100; also called Med12-1-100; Med12(1-100); source: Sf9/Hi5 insect cells (baculovirus), co-expressed with Cdk8 and CycC, purified (Ni-NTA via Cdk8); also purified alone
As for B1, the binding result is recorded as “binds”.

Values taken from doi:10.1101/2025.06.16.659917, “MTBP allosterically activates Cdk8-CycC kinase activity” (bioRxiv, 2025).
